Data set [1] is described as follows: pan-SV2 immunoblot of neuron lysates. Particulars: glycan lost.
Data set [2] concerns the target BoNT/A1 receptor-binding domain (HCA), wild type (UniProt P0DPI0 872-1296). Put plainly: SPR.

B1: SV2B: SV2B-N516A (protein)
parent chain: MDDYRYRDNYEGYAPNDGYYRGNEQNPEEDAQSDVTEGHDEEDEIYEGEYQGIPHPDDVKSKQTKMAPSRADGLRGQADLMAERMEDEEQLAHQYETIIDECGHGRFQWTLFFVLVLALMADGVEVFVVSFALPSAEKDMCLSSSKKGMLGLIVYLGMMAGAFILGGLADKLGRKKVLSMSLAINASFASLSSFVQGYGAFLFCRLISGIGIGGSLPIVFAYFSEFLSREKRGEHLSWLGIFWMTGGIYASAMAWSIIPHYGWGFSMGTNYHFHSWRVFVIVCALPATVSMVALKFMPESPRFLLEMGKHDEAWMILKQVHDTNMRAKGTPEKVFTVSHIKTPKQMDEFIEIQSSTGTWYQRWLVRFMTIFKQVWDNALYCVMGPYRMNTLILAVVWFTMALSYYGLTVWFPDMIRYFQDEEYKSKMKVFFGEHVHGATINFTMENQIHQHGKLVNDKFIKMYFKHVLFEDTFFDKCYFEDVTSTDTYFKNCTIESTTFYNTDLYKHKFIDCRFINSTFLEQKEGCHMDFEEDNDFLIYLVSFLGSLSVLPGNIISALLMDRIGRLKMIGGSMLISAVCCFFLFFGNSESAMIGWQCLFCGTSIAAWNALDVITVELYPTNQRATAFGILNGLCKLGAILGNTIFASFVGITKVVPILLAAASLVGGGLVALRLPETREQVLM
Regarding B1, the expression_or_secretion result in data set [1] (control: WT SV2B) is “decreases”.

B2: SV2A: SV2A-N573A (protein)
parent chain: MEEGFRDRAAFIRGAKDIAKEVKKHAAKKVVKGLDRVQDEYSRRSYSRFEEEEDDDDFPAPADGYYRGEGAQDEEEGGASSDATEGHDEDDEIYEGEYQGIPRAESGGKGERMADGAPLAGVRGGLSDGEGPPGGRGEAQRRKDREELAQQYETILRECGHGRFQWTLYFVLGLALMADGVEVFVVGFVLPSAEKDMCLSDSNKGMLGLIVYLGMMVGAFLWGGLADRLGRRQCLLISLSVNSVFAFFSSFVQGYGTFLFCRLLSGVGIGGSIPIVFSYFSEFLAQEKRGEHLSWLCMFWMIGGVYAAAMAWAIIPHYGWSFQMGSAYQFHSWRVFVLVCAFPSVFAIGALTTQPESPRFFLENGKHDEAWMVLKQVHDTNMRAKGHPERVFSVTHIKTIHQEDELIEIQSDTGTWYQRWGVRALSLGGQVWGNFLSCFSPEYRRITLMMMGVWFTMSFSYYGLTVWFPDMIRHLQAVDYAARTKVFPGERVEHVTFNFTLENQIHRGGQYFNDKFIGLRLKSVSFEDSLFEECYFEDVTSSNTFFRNCTFINTVFYNTDLFEYKFVNSRLVNSTFLHNKEGCPLDVTGTGEGAYMVYFVSFLGTLAVLPGNIVSALLMDKIGRLRMLAGSSVLSCVSCFFLSFGNSESAMIALLCLFGGVSIASWNALDVLTVELYPSDKRTTAFGFLNALCKLAAVLGISIFTSFVGITKAAPILFASAALALGSSLALKLPETRGQVLQ
For B2, in data set [1] (control: WT SV2A), the expression_or_secretion result is recorded as “no change”.

B3: SV2C (full length, in neurons): SV2C-N559A (protein)
parent chain: MEDSYKDRTSLMKGAKDIAKEVKKQTVKKVNQAVDRAQDEYTQRSYSRFQDEDDDDDYYPPGETYSGEANDDEGSSEATEGHDEEDEIYEGEYQGIPSTNQGKDSIVSVGQPKGDEYKDRRELESERRADEEELAQQYELIIQECGHGRFQWALFFVLGMALMADGVEVFVVGFVLPSAETDLCIPNSGSGWLGSIVYLGMMVGAFFWGGLADKVGRKQSLLICMSVNGFFAFLSSFVQGYGFFLLCRLLSGFGIGGAIPTVFSYFAEVLAREKRGEHLSWLCMFWMIGGIYASAMAWAIIPHYGWSFSMGSAYQFHSWRVFVIVCALPCVSSVVALTFMPESPRFLLEVGKHDEAWMILKLIHDTNMRARGQPEKVFTVNKIKTPKQIDELIEIESDTGTWYRRCFVRIRTELYGIWLTFMRCFNYPVRENTIKLTIVWFTLSFGYYGLSVWFPDVIKHLQSDEYALLTRNVQKDKYANFSINFTMENQVHTGMEYDNGRFLGVKFKSVTFKDSVFKSCTFDDVTSVNTYFKNCTFIDTLFENTDFEPYKFIDSEFQNCSFLHNKTGCQITFDDDYSAYWIYFVNFLGTLAVLPGNIVSALLMDRIGRLTMLGGSMVLSGISCFFLWFGTSESMMIGMLCLYNGLTISAWNSLDVVTVELYPTDRRATGFGFLNALCKAAAVLGNLIFGSLVSITKAIPILLASTVLVCGGLVGLRLPDTRTQVLM
With B3, in data set [1] (control: WT SV2C), the expression_or_secretion result is given as “decreases”.

B4: SUMO-bSV2C: human SV2C-L4 (V473-T567) with 6xHis/SUMO tag, expressed in E. coli (domain or fragment)
chain: VERDKYANFTINFTMENQIHTGMEYDNGRFIGVKFKSVTFKDSVFKSCTFEDVTSVNTYFKNCTFIDTVFDNTDFEPYKFIDSEFKNCSFFHNKT
In the case of B4, in data set [2], the Kd was approximately 86 nM and the koff worked out at 0.11 s⁻¹.

The values above are taken from PMC5033645 (Nature structural & molecular biology, 2016).
